{"source": "patent US20240035010", "about": "“COMPOSITIONS COMPRISING A VARIANT POLYPEPTIDE AND USES THEREOF” (Arbor Biotechnologies, Inc., published 2024)", "key": {"[1]": {"biological_target": "T1, variant nuclease E736G combination (P14R, D32R, I61R, E311R, E736G)", "T1 chain": "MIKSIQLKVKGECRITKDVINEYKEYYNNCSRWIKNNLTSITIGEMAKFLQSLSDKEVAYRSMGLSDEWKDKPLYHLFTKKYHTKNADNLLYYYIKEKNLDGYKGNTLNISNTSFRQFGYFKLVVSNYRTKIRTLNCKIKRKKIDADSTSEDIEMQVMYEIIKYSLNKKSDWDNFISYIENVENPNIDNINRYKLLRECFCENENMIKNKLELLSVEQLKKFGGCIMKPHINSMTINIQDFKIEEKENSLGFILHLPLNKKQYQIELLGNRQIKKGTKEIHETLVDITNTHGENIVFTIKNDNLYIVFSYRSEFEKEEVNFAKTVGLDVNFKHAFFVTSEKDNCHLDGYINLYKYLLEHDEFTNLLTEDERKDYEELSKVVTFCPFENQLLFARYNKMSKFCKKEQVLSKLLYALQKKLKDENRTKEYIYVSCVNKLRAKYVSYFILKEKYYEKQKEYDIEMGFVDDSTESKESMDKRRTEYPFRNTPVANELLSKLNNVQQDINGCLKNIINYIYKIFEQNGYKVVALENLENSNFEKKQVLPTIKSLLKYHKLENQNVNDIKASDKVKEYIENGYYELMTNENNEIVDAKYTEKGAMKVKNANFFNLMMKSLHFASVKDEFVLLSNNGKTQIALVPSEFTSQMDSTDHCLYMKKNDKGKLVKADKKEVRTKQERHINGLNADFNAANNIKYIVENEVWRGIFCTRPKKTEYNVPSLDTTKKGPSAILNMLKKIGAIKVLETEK", "assay": "cell_activity; PAM 5'-TTTG-3'", "conditions": "tags: pcDNA3.1 expression", "experimental": "(§1) Approximately 16 hours prior to transfection, 25,000 HEK293T cells in DMEM/10% FBS+Pen/Strep (D10 media) were plated into each well of a 96-well plate. On the day of transfection, the cells were 70-90% confluent. For each well to be transfected, a mixture of Lipofectamine 2000™ and Opti-MEM™ was prepared and incubated at room temperature for 5 minutes (Solution 1). After incubation, the Lipofectamine 2000™:Opti-MEM™ mixture was added to a separate mixture containing nuclease plasmid, RNA guide plasmid, and Opti-MEM™ (Solution 2). In the case of negative controls, the RNA guide plasmid was not included in Solution 2. Solutions 1 and 2 were mixed by pipetting up and down, then incubated at room temperature for 25 minutes. Following incubation, the Solution 1 and 2 mixture was added dropwise to each well of a 96-well plate containing the cells. Approximately 72 hours post transfection, cells were trypsinized by adding TrypLE™ to the center of each well and incubating at 37° C. for approximately 5 minutes. D10 media was then added to each well and mixed to resuspend cells. The resuspended cells were centrifuged at 500 g for 10 minutes to obtain a pellet, and the supernatant was discarded. The cell pellet was then resuspended in QuickExtract™ buffer (Lucigen®), and cells were incubated at 65° C. for 15 minutes, 68° C. for 15 minutes, and 98° C. for 10 minutes.\n(§2) This Example describes assessment of indel activity at multiple target sites using the wild-type polypeptide of SEQ ID NO: 3 or variant polypeptides of Table 4. The variant polypeptides were cloned into a pcDNA3.1 backbone (Invitrogen), and the cells were transfected as described in Example 7.\n(§3) The percentage of NGS reads containing indels (% indels) were calculated. For each variant polypeptide and target, % indels were averaged across two bioreplicates and two technical replicates. These values were then compared to % indels of the wild-type polypeptide of SEQ ID NO: 3."}, "[2]": {"biological_target": "T2, variant nuclease 7 substitutions D590G/E154G/E736G (P14R, D32R, I61R, E311R, D590G, E154G, E736G)", "T2 chain": "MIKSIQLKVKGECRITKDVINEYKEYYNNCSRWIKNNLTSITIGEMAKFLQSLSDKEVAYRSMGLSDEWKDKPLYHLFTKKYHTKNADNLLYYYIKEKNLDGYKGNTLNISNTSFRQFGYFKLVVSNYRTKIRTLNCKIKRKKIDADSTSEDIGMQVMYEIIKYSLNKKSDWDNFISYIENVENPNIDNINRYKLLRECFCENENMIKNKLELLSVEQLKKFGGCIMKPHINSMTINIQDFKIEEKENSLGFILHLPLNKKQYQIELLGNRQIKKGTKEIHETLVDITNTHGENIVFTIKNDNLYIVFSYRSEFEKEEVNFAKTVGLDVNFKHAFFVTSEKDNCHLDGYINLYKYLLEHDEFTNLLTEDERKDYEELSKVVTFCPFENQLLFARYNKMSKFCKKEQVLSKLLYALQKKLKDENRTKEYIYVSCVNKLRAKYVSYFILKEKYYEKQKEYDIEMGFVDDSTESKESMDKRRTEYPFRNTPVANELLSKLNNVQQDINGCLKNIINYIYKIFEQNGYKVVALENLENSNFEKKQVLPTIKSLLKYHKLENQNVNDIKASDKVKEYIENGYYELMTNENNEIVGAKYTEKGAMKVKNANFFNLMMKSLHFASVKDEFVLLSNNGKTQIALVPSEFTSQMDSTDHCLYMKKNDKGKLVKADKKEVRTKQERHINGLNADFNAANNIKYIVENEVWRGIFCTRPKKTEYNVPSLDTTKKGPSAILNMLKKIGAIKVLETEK", "assay": "cell_activity; PAM 5'-TTTG-3'", "conditions": "tags: pcDNA3.1 expression", "experimental": "as §1, §2, §3"}}}
{"binder": "AAVS1 crRNA ; AAVS1 target (ssRNA ; dsDNA) RNA: CUUGUUGUAUAUGUCCUUUUAUAGGUAUUAAACAACUGAGAAUGGUGCGUCCUAGG DNA 1: TGAGAATGGTGCGTCCTAGG DNA 2: CCTAGGACGCACCATTCTCA", "values": [{"measurement": "indel activity", "setting": "[1]", "result": "5.28 fold of WT"}, {"measurement": "indel activity", "setting": "[2]", "result": "5.91 fold of WT"}]}
